Patent US9029508 (dated 2015)

T1: VEGF (human, UniProt P15692)
T1 chain: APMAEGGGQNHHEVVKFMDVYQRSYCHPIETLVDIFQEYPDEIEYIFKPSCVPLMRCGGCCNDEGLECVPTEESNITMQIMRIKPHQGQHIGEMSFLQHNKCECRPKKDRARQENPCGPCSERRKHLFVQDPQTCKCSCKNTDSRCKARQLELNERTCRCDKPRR


Key:
DLL4 = DLL4 (human, UniProt Q9NR61); experiment: ELISA
VEGF = target: T1, VEGF; experiment: ELISA

Chain of DLL4 (Q9NR61 27-524): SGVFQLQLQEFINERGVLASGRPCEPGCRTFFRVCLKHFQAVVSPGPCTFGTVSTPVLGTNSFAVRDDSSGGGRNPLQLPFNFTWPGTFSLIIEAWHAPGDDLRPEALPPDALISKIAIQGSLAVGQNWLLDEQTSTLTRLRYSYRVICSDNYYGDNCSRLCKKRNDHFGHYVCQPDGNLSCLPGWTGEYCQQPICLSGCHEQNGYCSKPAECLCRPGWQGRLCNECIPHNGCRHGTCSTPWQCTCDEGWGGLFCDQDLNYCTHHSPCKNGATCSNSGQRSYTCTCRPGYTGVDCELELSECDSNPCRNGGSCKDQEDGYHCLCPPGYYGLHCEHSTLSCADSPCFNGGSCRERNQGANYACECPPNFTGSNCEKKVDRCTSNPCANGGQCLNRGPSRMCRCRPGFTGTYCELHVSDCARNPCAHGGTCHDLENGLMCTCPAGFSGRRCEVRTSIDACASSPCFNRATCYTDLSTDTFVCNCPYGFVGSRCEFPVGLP

EC50 (DLL4)	EC50 (VEGF)	Binder
0.48 nM	–	DVD522 DLL4 arm (antibody, V domains shown, DVD-Ig inner) VH: EVQLQQSGPELEKPGASVKISCKASGYSFTGYNMNWVKQSNGKSLEWIGNIDPYFGGTNYNQKFKGKATLTVDKSSSTAYMQLKSLTSEDSAVYYCARNYDYDGGCFDYWGQGTTLTVSS VL: QAVVTQESALTTSPGETVTLTCRSSTGAVTTSNYANWVQEKPDHLFTGLIGGTNNRAPGVPARFSGSLIGDKAALTITGAQTEDEAIYFCALWYSNHWVFGGGTKLTVLG
0.2 nM	–	DVD527 DLL4 arm (antibody, V domains shown, DVD-Ig outer) VH: EVQLQQSGPELEKPGASVKISCKASGYSFTGYNMNWVKQSNGKSLEWIGNIDPYFGGTNYNQKFKGKATLTVDKSSSTAYMQLKSLTSEDSAVYYCARNYDYDGGCFDYWGQGTTLTVSS VL: QAVVTQESALTTSPGETVTLTCRSSTGAVTTSNYANWVQEKPDHLFTGLIGGTNNRAPGVPARFSGSLIGDKAALTITGAQTEDEAIYFCALWYSNHWVFGGGTKLTVLG
0.66 nM	–	DVD513 DLL4 arm (antibody, V domains shown, DVD-Ig outer) VH: EVQLQQSGPELEKPGASVKISCKASGYSFTGYNMNWVKQSNGKSLEWIGNIDPYFGGTNYNQKFKGKATLTVDKSSSTAYMQLKSLTSEDSAVYYCARNYDYDGGCFDYWGQGTTLTVSS VL: QAVVTQESALTTSPGETVTLTCRSSTGAVTTSNYANWVQEKPDHLFTGLIGGTNNRAPGVPARFSGSLIGDKAALTITGAQTEDEAIYFCALWYSNHWVFGGGTKLTVLG
0.71 nM	–	DVD507 DLL4 arm (antibody, V domains shown, DVD-Ig outer) VH: EVQLQQSGPELVKPGASVKMSCKASGYTFTSYVINWVKQKPGQGLEWIGLINPYNDGTKYNEKFKVKATLTSDKSSSTAYMELSSLTSEDSAVYYCASYYYGSRYYFDYWGQGTTLTVSS VL: DIQMTQSSSYLSVSLGGRVTITCKASDHINNWLAWYQQKPGNAPRLLISGATSLETGVPSRFSGSGSGKDYTLSITSLQTEDVATYYCQQYWSIPLTFGAGTKLELKR
0.57 nM	–	DVD500 DLL4 arm (antibody, V domains shown, DVD-Ig inner) VH: EVQLQQSGPELVKPGASVKMSCKASGYTFTSYVINWVKQKPGQGLEWIGLINPYNDGTKYNEKFKVKATLTSDKSSSTAYMELSSLTSEDSAVYYCASYYYGSRYYFDYWGQGTTLTVSS VL: DIQMTQSSSYLSVSLGGRVTITCKASDHINNWLAWYQQKPGNAPRLLISGATSLETGVPSRFSGSGSGKDYTLSITSLQTEDVATYYCQQYWSIPLTFGAGTKLELKR
–	27.7 nM	DVD528 VEGF arm (antibody, V domains shown) VH: EVQLVESGGGLVQPGGSLRLSCAASGFTINASWIHWVRQAPGKGLEWVGAIYPYSGYTNYADSVKGRFTISADTSKNTAYLQMNSLRAEDTAVYYCARWGHSTSPWAMDYWGQGTLVTVSS VL: DIQMTQSPSSLSASVGDRVTITCRASQVIRRSLAWYQQKPGKAPKLLIYAASNLASGVPSRFSGSGSGTDFTLTISSLQPEDFATYYCQQSNTSPLTFGQGTKVEIKR
–	3020 nM	DVD515 VEGF arm (antibody, V domains shown) VH: EVQLVESGGGLVQPGGSLRLSCAASGFTINASWIHWVRQAPGKGLEWVGAIYPYSGYTNYADSVKGRFTISADTSKNTAYLQMNSLRAEDTAVYYCARWGHSTSPWAMDYWGQGTLVTVSS VL: DIQMTQSPSSLSASVGDRVTITCRASQVIRRSLAWYQQKPGKAPKLLIYAASNLASGVPSRFSGSGSGTDFTLTISSLQPEDFATYYCQQSNTSPLTFGQGTKVEIKR
–	655 nM	DVD521 VEGF arm (antibody, V domains shown) VH: EVQLVESGGGLVQPGGSLRLSCAASGFTINASWIHWVRQAPGKGLEWVGAIYPYSGYTNYADSVKGRFTISADTSKNTAYLQMNSLRAEDTAVYYCARWGHSTSPWAMDYWGQGTLVTVSS VL: DIQMTQSPSSLSASVGDRVTITCRASQVIRRSLAWYQQKPGKAPKLLIYAASNLASGVPSRFSGSGSGTDFTLTISSLQPEDFATYYCQQSNTSPLTFGQGTKVEIKR
–	30.6 nM	DVD498 VEGF arm (antibody, V domains shown) VH: EVQLVESGGGLVQPGGSLRLSCAASGFTINASWIHWVRQAPGKGLEWVGAIYPYSGYTNYADSVKGRFTISADTSKNTAYLQMNSLRAEDTAVYYCARWGHSTSPWAMDYWGQGTLVTVSS VL: DIQMTQSPSSLSASVGDRVTITCRASQVIRRSLAWYQQKPGKAPKLLIYAASNLASGVPSRFSGSGSGTDFTLTISSLQPEDFATYYCQQSNTSPLTFGQGTKVEIKR

Continued, binder first:

Binder	EC50 (DLL4)	EC50 (VEGF)
DVD472 DLL4 arm (antibody, DVD-Ig inner) chain 1: EVQLVESGGGLVQPGGSLRLSCAASGFTFTDNWISWVRQAPGKGLEWVGYISPNSGFTYYADSVKGRFTISADTSKNTAYLQMNSLRAEDTAVYYCARDNFGGYFDYWGQGTLVTVSS chain 2: DIQMTQSPSSLSASVGDRVTITCRASQDVSTAVAWYQQKPGKAPKLLIYSASFLYSGVPSRFSGSGSGTDFTLTISSLQPEDFATTYYCQQSYTGTVTFGQGTKVEIKR	2.78 nM	–
DVD474 DLL4 arm (antibody, DVD-Ig inner) chain 1: EVQLVESGGGLVQPGGSLRLSCAASGFTFTDNWISWVRQAPGKGLEWVGYISPNSGFTYYADSVKGRFTISADTSKNTAYLQMNSLRAEDTAVYYCARDNFGGYFDYWGQGTLVTVSS chain 2: DIQMTQSPSSLSASVGDRVTITCRASQDVSTAVAWYQQKPGKAPKLLIYSASFLYSGVPSRFSGSGSGTDFTLTISSLQPEDFATTYYCQQSYTGTVTFGQGTKVEIKR	0.57 nM	–
DVD482 DLL4 arm (antibody, DVD-Ig inner) chain 1: EVQLVESGGGLVQPGGSLRLSCAASGFTFTDNWISWVRQAPGKGLEWVGYISPNSGFTYYADSVKGRFTISADTSKNTAYLQMNSLRAEDTAVYYCARDNFGGYFDYWGQGTLVTVSS chain 2: DIQMTQSPSSLSASVGDRVTITCRASQDVSTAVAWYQQKPGKAPKLLIYSASFLYSGVPSRFSGSGSGTDFTLTISSLQPEDFATTYYCQQSYTGTVTFGQGTKVEIKR	0.36 nM	–
DVD463 VEGF arm (antibody, V domains shown) VH: EVQLVESGGGLVQPGGSLRLSCAASGFTINASWIHWVRQAPGKGLEWVGAIYPYSGYTNYADSVKGRFTISADTSKNTAYLQMNSLRAEDTAVYYCARWGHSTSPWAMDYWGQGTLVTVSS VL: DIQMTQSPSSLSASVGDRVTITCRASQVIRRSLAWYQQKPGKAPKLLIYAASNLASGVPSRFSGSGSGTDFTLTISSLQPEDFATYYCQQSNTSPLTFGQGTKVEIKR	–	1730 nM
DVD491 VEGF arm (antibody, V domains shown) VH: EVQLVESGGGLVQPGGSLRLSCAASGFTINASWIHWVRQAPGKGLEWVGAIYPYSGYTNYADSVKGRFTISADTSKNTAYLQMNSLRAEDTAVYYCARWGHSTSPWAMDYWGQGTLVTVSS VL: DIQMTQSPSSLSASVGDRVTITCRASQVIRRSLAWYQQKPGKAPKLLIYAASNLASGVPSRFSGSGSGTDFTLTISSLQPEDFATYYCQQSNTSPLTFGQGTKVEIKR	–	1250 nM
DVD446 VEGF arm (antibody, V domains shown) VH: EVQLVESGGGLVQPGGSLRLSCAASGFTINASWIHWVRQAPGKGLEWVGAIYPYSGYTNYADSVKGRFTISADTSKNTAYLQMNSLRAEDTAVYYCARWGHSTSPWAMDYWGQGTLVTVSS VL: DIQMTQSPSSLSASVGDRVTITCRASQVIRRSLAWYQQKPGKAPKLLIYAASNLASGVPSRFSGSGSGTDFTLTISSLQPEDFATYYCQQSNTSPLTFGQGTKVEIKR	–	14.4 nM
DVD457 VEGF arm (antibody, V domains shown) VH: EVQLVESGGGLVQPGGSLRLSCAASGFTINASWIHWVRQAPGKGLEWVGAIYPYSGYTNYADSVKGRFTISADTSKNTAYLQMNSLRAEDTAVYYCARWGHSTSPWAMDYWGQGTLVTVSS VL: DIQMTQSPSSLSASVGDRVTITCRASQVIRRSLAWYQQKPGKAPKLLIYAASNLASGVPSRFSGSGSGTDFTLTISSLQPEDFATYYCQQSNTSPLTFGQGTKVEIKR	–	1480 nM
DVD485 VEGF arm (antibody, V domains shown) VH: EVQLVESGGGLVQPGGSLRLSCAASGFTINASWIHWVRQAPGKGLEWVGAIYPYSGYTNYADSVKGRFTISADTSKNTAYLQMNSLRAEDTAVYYCARWGHSTSPWAMDYWGQGTLVTVSS VL: DIQMTQSPSSLSASVGDRVTITCRASQVIRRSLAWYQQKPGKAPKLLIYAASNLASGVPSRFSGSGSGTDFTLTISSLQPEDFATYYCQQSNTSPLTFGQGTKVEIKR	–	121 nM
DVD451 VEGF arm (antibody, V domains shown) VH: EVQLVESGGGLVQPGGSLRLSCAASGFTINASWIHWVRQAPGKGLEWVGAIYPYSGYTNYADSVKGRFTISADTSKNTAYLQMNSLRAEDTAVYYCARWGHSTSPWAMDYWGQGTLVTVSS VL: DIQMTQSPSSLSASVGDRVTITCRASQVIRRSLAWYQQKPGKAPKLLIYAASNLASGVPSRFSGSGSGTDFTLTISSLQPEDFATYYCQQSNTSPLTFGQGTKVEIKR	–	2400 nM
DVD459 DLL4 arm (antibody, V domains shown, DVD-Ig outer) VH: QVQLVQSGAEVKKPGASVKISCKASGYSFTAYYIHWVKQAPGQGLEWIGYISSYNGATNYNQKFKGRVTFTTDTSTSTAYMELRSLRSDDTAVYYCARDYDYDVGMDYWGQGTLVTVSS VL: DIVMTQSPDSLAVSLGERATISCRASESVDNYGISFMKWFQQKPGQPPKLLIYAASNQGSGVPDRFSGSGSGTDFTLTISSLQAEDVAVYYCQQSKEVPWTFGGGTKVEIKR	0.26 nM	–
DVD463 DLL4 arm (antibody, V domains shown, DVD-Ig outer) VH: QVQLVQSGAEVKKPGASVKISCKASGYSFTAYYIHWVKQAPGQGLEWIGYISSYNGATNYNQKFKGRVTFTTDTSTSTAYMELRSLRSDDTAVYYCARDYDYDVGMDYWGQGTLVTVSS VL: DIVMTQSPDSLAVSLGERATISCRASESVDNYGISFMKWFQQKPGQPPKLLIYAASNQGSGVPDRFSGSGSGTDFTLTISSLQAEDVAVYYCQQSKEVPWTFGGGTKVEIKR	0.5 nM	–
DVD448 DLL4 arm (antibody, V domains shown, DVD-Ig inner) VH: QVQLVQSGAEVKKPGASVKISCKASGYSFTAYYIHWVKQAPGQGLEWIGYISSYNGATNYNQKFKGRVTFTTDTSTSTAYMELRSLRSDDTAVYYCARDYDYDVGMDYWGQGTLVTVSS VL: DIVMTQSPDSLAVSLGERATISCRASESVDNYGISFMKWFQQKPGQPPKLLIYAASNQGSGVPDRFSGSGSGTDFTLTISSLQAEDVAVYYCQQSKEVPWTFGGGTKVEIKR	0.41 nM	–
